Laboratory results taken from patent publication US20160333308A1.

Columns and labels:
[1] = test system: activator protein (ACT) from Bacillus methanolicus PB1
[2] = molecular target: methanol dehydrogenase MDH2 from Bacillus methanolicus PB1 (Bacillus methanolicus PB1); experiment: cell-based or functional assay

Row | specific activity of MDH2 with ACT, crude lysates [2] [µmol/min/mg] | Substance | Km for methanol of MDH2 with ACT, crude lysates [1]
1 | – | methanol dehydrogenase MDH2 from Bacillus methanolicus PB1 | a Km of 119 mM
2 | 0.009 | activator protein (ACT) from Bacillus methanolicus PB1 | –
